Data from patent US20100055033A1 (GOVERNMENT OF THE UNITED STATES OF AMERICA AS REPRESENTED …, published 2010).

Legend:
human insulin = human insulin (human, UniProt P01308 25-54; P01308 90-110, limits assumed); test: screening of a human naive phage library; assay not named here
[1] = target: T1, recombinant human insulin-like growth factor I (human, UniProt P05019 49-118); test: ELISA on IGF-I, one Fab concentration (not given), duplicate bars
T1 construct: also called IGF-I; IGF I
Experimental: (§1) ELISA Binding Assay. Antigen was coated on narrow-well, 96-well plate at 50 ng/well overnight at 4° C. For phage ELISA, 10¹⁰ phage from each round of panning was incubated with antigen. Bound phage was detected with anti-M13-HRP polyclonal antibody (Pharmacia, Piscataway, N.J.). For soluble Fab binding assay, anti-Flag HRP conjugate was used to detect the binding.

[2] = target: T2, human insulin-like growth factor II (human, UniProt P01344 25-91); test: ELISA on IGF-II, one Fab concentration (not given)
T2 construct: also called IGF-II; IGF II
T2 sequence (P01344 25-91 limits assumed): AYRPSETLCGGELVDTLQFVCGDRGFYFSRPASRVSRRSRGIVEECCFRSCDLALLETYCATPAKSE
Experimental: as §1

[3] = target: T1, recombinant human insulin-like growth …; test: competition ELISA: m706 at 100 nM against the binding of IGF-I (50 nM) to soluble IGF-IR
[4] = target: T1, recombinant human insulin-like growth …; test: competition ELISA: m708 at 400 nM against the binding of IGF-I (50 nM) to soluble IGF-IR
[5] = target: T2, human insulin-like growth factor II; test: method not stated (FIG. 9)
[6] = target: T1, recombinant human insulin-like growth …; test: ELISA, Fab titrated on IGF-I
Experimental: as §1

T1 sequence (P05019 49-118 limits assumed): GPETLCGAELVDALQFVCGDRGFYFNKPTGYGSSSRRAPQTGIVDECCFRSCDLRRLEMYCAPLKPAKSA
Sequence of human insulin (P01308 25-54 limits assumed, chain 1 of 2): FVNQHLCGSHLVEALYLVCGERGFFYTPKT
Sequence of human insulin (P01308 90-110 limits assumed, chain 2 of 2): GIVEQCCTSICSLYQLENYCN

B1: m705 Fab (Fab, V domains shown)
VH: QVQLVQSGVEVKKPGASVKVPCKASGYTFTSYYMHWVRQAPGQGLEWMGIINPSGGSTSYAQKFQGRVTMTRDTSTSTVYMELSSLRSEDTAVYYCARDDFWSGAVGMDVWGQGTTVTVSS
VL: DIQMTQSPATLSLSPGERATLSCRASQDVGSDLAWYQQKPGQPPRLLVSDASNRATGIPARFSGSGSGTDFKLTINSLEPEDSAVYYCQQRRRWPPGATFGGGTKVEIKR
notes: also called No. 5; IGF-I specific mAb
- binding result (human insulin): no binding
- binding result [1]: binds
- binding result [2]: no binding

B2: m706 Fab (Fab, V domains shown)
VH: EVQLVQSGVDVKKPGSSVKVSCKASGGTFSSYAISWVRQAPGQGLEWMGGIIPIFGTANYAQKFQGRVTITADESASTAYMELSSLRSEDTAVYYCASGYEGPLWAFDIWGQGTMVTVSS
VL: SQSVLTQPPSVSAAPGQRVSISCSGSSSNIGNYHVSWYQHLPGRAPKLLIYDNSKRPSGIPDRFSGSKSGTSATLDITGLQTGDEGDYYCATWDTSLRWVFGTGTKVTVL
notes: also called No. 6; IGF-I specific mAb
- binding result (human insulin): no binding
- binding result [3]: binds
- binding result [2]: no binding

B3: m708 Fab (Fab, V domains shown)
VH: QVQLQQSGAEVKKPGSSVKVSCKASGGTFSSYAISWVRQAPGQGLEWMGGIIPILGIANYAQKFQGRVTITADESTSTAYMELSSLRSEDTAVYYCARGPRGYSYNFDYWGQGTLVTVSS
VL: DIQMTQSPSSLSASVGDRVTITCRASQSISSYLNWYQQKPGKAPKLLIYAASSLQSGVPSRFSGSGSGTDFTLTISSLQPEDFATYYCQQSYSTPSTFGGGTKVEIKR
notes: also called No. 8
- binding result [4]: binds

B4: m708.2 IgG1 (antibody, V domains shown)
VH: B3 VH
VL: DIQMTQSPSSLSASVGDRVTIACRASQTISRYLNWYQQKPGKAPKLLIYAASSLQSGVSSRFSGSGSGTEFTLTISSLQPEDFATYFCQQTYSPPITFGQGTRLEIKR
notes: also called IgG708.2
- Kd [5]: ~0.08 nM

B5: m708.2 Fab (Fab, V domains shown)
VH: B3 VH
VL: B4 VL
notes: also called clone m708.2
- binding result [6]: binds
